Molecular target: 6xHis-XRCC4^1-164 (C-to-A), wildtype for the SIMs (human) (UniProt Q13426)
Assay: SPR

Q: For “polySUMO2 chains (enzymatically linked via the internal K11) (from UniProt P61956 1-95)”, which fold increase in KD against full-length XRCC4 is on record?
A: 3 fold
